{"source": "ChEMBL document CHEMBL1142204", "about": "“Cathepsin A is the major hydrolase catalyzing the intracellular hydrolysis of the antiretroviral nucleotide phosphonoamidate prodrugs GS-7340 and GS-9131” (Antimicrob Agents Chemother, 2007)", "key": {"[1]": {"substrate": "CC(C)OC(=O)[C@H](C)N[P@](=O)(CO[C@H](C)Cn1cnc2c(N)ncnc21)Oc1ccccc1", "assay": "Ratio of kcat to Km for Cat A activity", "conditions": "Homo sapiens"}, "[2]": {"substrate": "CC(C)OC(=O)[C@H](C)N[P@](=O)(CO[C@H](C)Cn1cnc2c(N)ncnc21)Oc1ccccc1", "assay": "Activity of Cat A assessed as hydrolysis", "conditions": "Homo sapiens"}}}
{"protein": "Lysosomal protective protein (Homo sapiens), P10619 (protein) MIRAAPPPLFLLLLLLLLLVSWASRGEAAPDQDEIQRLPGLAKQPSFRQYSGYLKGSGSKHLHYWFVESQKDPENSPVVLWLNGGPGCSSLDGLLTEHGPFLVQPDGVTLEYNPYSWNLIANVLYLESPAGVGFSYSDDKFYATNDTEVAQSNFEALQDFFRLFPEYKNNKLFLTGESYAGIYIPTLAVLVMQDPSMNLQGLAVGNGLSSYEQNDNSLVYFAYYHGLLGNRLWSSLQTHCCSQNKCNFYDNKDLECVTNLQEVARIVGNSGLNIYNLYAPCAGGVPSHFRYEKDTVVVQDLGNIFTRLPLKRMWHQALLRSGDKVRMDPPCTNTTAASTYLNNPYVRKALNIPEQLPQWDMCNFLVNLQYRRLYRSMNSQYLKLLSSQKYQILLYNGDVDMACNFMGDEWFVDSLNQKMEVQRRPWLVKYGDSGEQIAGFVKEFSHIAFLTIKGAGHMVPTDKPLAAFTMFSRFLNKQPY", "values": [{"measurement": "kcat/Km", "setting": "[1]", "result": "2.9e+06", "unit": "M⁻¹ s⁻¹"}, {"measurement": "Km", "setting": "[2]", "result": 610, "unit": "µM"}]}
